The values below come from publication PMC5849677, “A novel C3d-containing oligomeric vaccine provides insight into the viability of testing human C3d-based vaccines in mice” (Immunobiology, 2018).

One assay deals with T1, hC3dg (aa 955-1303)-Fc (human, UniProt P01024 955-1303).
T1 construct: human complement C3, C3dg fragment, aa 955-1303 (of pre-pro C3); also called hC3dg-Fc; hC3d with the g fragment attached
The assay can be described thus: SPR; Biacore; hC3d or C3d(g)-Fc fusions immobilised by amine coupling (94.3-96.2 RU); Fc-fusion analytes 0.195-50 nM in HBS-EP+, physiological salt, 360 s injection; steady state affinity model; apparent KD. The conditions noted are these: both partners purified.

The next assay deals with T2, mC3d-Fc (mouse, UniProt P01027 1002-1303).
T2 construct: mouse complement C3, C3d fragment
T2 sequence (P01027 1002-1303): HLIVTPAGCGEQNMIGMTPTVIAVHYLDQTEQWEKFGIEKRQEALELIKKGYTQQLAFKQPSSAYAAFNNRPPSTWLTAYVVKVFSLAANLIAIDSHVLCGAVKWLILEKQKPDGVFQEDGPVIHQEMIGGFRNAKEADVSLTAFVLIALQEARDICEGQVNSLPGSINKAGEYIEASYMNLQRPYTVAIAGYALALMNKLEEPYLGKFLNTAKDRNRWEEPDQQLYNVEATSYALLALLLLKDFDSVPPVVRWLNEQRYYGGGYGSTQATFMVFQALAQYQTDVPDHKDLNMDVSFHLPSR
The assay is described as above. The conditions noted are these: both partners purified.

T1 sequence (P01024 955-1303): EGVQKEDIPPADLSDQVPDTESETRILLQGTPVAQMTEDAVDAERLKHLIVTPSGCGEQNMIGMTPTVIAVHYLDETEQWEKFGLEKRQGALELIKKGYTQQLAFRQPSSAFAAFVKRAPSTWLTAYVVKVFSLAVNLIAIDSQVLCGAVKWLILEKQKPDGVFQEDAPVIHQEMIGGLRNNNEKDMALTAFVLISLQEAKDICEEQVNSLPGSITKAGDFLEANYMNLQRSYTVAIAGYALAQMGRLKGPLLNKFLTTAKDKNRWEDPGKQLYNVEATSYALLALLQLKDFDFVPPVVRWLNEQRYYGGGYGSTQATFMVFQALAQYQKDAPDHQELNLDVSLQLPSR

B1: hCR2 (SCR1-4)-Fc (Fc fusion)
chain: ISCGSPPPILNGRISYYSTPIAVGTVIRYSCSGTFRLIGEKSLLCITKDKVDGTWDKPAPKCEYFNKYSSCPEPIVPGGYKIRGSTPYRHGDSVTFACKTNFSMNGNKSVWCQANNMWGPTRLPTCVSVFPLECPALPMIHNGHHTSENVGSIAPGLSVTYSCESGYLLVGEKIINCLSSGKWSAVPPTCEEARCKSLGRFPNGKVKEPPILRVGVTANFFCDEGYRLQGPPSSRCVIAGQGVAWTKMPVCEE
notes: human complement receptor 2, short consensus repeats 1-4; also called hCR2-Fc; soluble hCR2; source: CHO cells, transfected, purified from tissue culture supernatant
In the case of B1, in the assay with hC3dg (aa 955-1303)-Fc, the Kd fell in the range of 3.1 to 5.1 nM. For the same molecule, in the assay with mC3d-Fc, the Kd is 1.47 ± 0.47 nM and the “fold higher affinity than for hC3d-Fc” value worked out at 4 fold.
